Reference: the supplement of paper PMC12764529
± gives the half width of the 95% confidence interval.

What was measured:
[1] = folding stability dG unfold from trypsin proteolysis; higher = more stable
How it was run: (§1)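 Designed mini-proteins (under 80 residues, no cysteine) in a PA-tagged cDNA display construct were digested with trypsin and chymotrypsin. Each protease was used at 11 concentrations (threefold dilutions) plus a no-protease condition, followed by sequencing. K50 was inferred by Bayesian fitting of sequencing counts, and unfolding free energy was derived against a sequence-predicted unfolded-state K50 and a shared folded-state K50, per protease or combined. Only designs with AlphaFold2 dimer inter-PAE above 15 were kept.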

[2] = folding stability dG unfold from chymotrypsin proteolysis; higher = more stable
How it was run: as §1

[3] = folding stability dG unfold (combined trypsin and chymotrypsin); higher = more stable
How it was run: as §1

Sequence | folding stability dG unfold [1] [kcal/mol] | folding stability dG unfold [2] [kcal/mol] | folding stability dG unfold [3] [kcal/mol]
SAGMIKVEVYTLDPNGVLTKETYEIPLLPGTPIEEVVNELTEPGTGAVEIVEYNPPPPEIKIKIVRFPASAG [r5_227_TrMRF] | 1.48 ± 0.43 | 2.94 ± 0.09 | 2.49 ± 0.23
SAGMILPPNTVVTLSTTTTEELPLFTDGSGPRTTTTETVVTVEPVPVNPYPDPAVREKLLAEGKPLELLSAG [r5_624_JUSTAS] | -0.513 ± 0.13 | -0.207 ± 0.13 | -0.265 ± 0.12
SAGMIRIIVDGKEVEEIEMSEEELRALLADPNIKKARVFVNGEEKEVEVKEGEIKEKLPPGAVIRIEKSAGG [r19_152_TrROS_Hall] | 1.45 ± 0.061 | 2.04 ± 0.031 | 1.79 ± 0.12
SAGMITPEELEERIRKLAEETGGPRYRVKVRGPDGPLYEFEVGFTPEEIERLAKELGVDIVEVEPIPESAGG [r19_50_TrMRF] | 2.97 ± 0.085 | 3.07 ± 0.13 | 3 ± 0.11
SAGMKIKITLPNGAEFESNPETGKIEVIDPETGKPLIAYIPKDRPDIAFIFDPDNPKPLFEVKIDEIYPSAG [r5_761_TrMRF] | 0.889 ± 0.016 | 1.27 ± 0.042 | 1.11 ± 0.051
SAGMKIRILILGKGDPAQVEALAKELEAKLKEELGTEDVEVETLPASLTEEAAEERAKEEKVDIVVYESAGG [r19_89_JUSTAS] | 0.85 ± 0.045 | 1.08 ± 0.13 | 0.99 ± 0.09
SAGMKITVKAVLKKGEKEYEVEFEADSLEEIIGAILELYEKLNFDELRVKIKIGDKEYEIELPFLIPDESAG [r5_946_TrMRF] | 4.28 ± 0.41 | 4.2 ± 0.68 | 4.24 ± 0.94
SAGMKKLPSEEERKKAEELAKKGELVIIIRLKNGEKLVIVVKSEEELKELLKKLPLEIEEIYVFKVKKKSAG [r5_481_TrROS_Hall] | 1.72 ± 0.028 | 2.26 ± 0.049 | 2.07 ± 0.16
SAGMKKTITIKIEVPEKPIRIIVEKNGKKEEITIKPGETVTIEIELEPGETLRIRIVNEDGEEFEFEIKSAG [r5_187_TrROS_Hall] | 4.15 ± 0.3 | 3.45 ± 0.12 | 3.68 ± 0.28
SAGMKKVEIVEEVKDPETNEPVILVRDKDTGELVKFHPNGKVTIYDLNDPNKAKVFEAKISDVLEELANSAG [r5_491_TrMRF] | 0.622 ± 0.071 | 1.28 ± 0.19 | 0.847 ± 0.21
SAGMKLTVTITDPATGKTYTITVKPGGETTVTNGSSTTSISIPTSDPKKVEELAEEIEPKGYTATITLESAG [r5_791_JUSTAS] | 1.17 ± 0.018 | 1.36 ± 0.17 | 1.3 ± 0.086
SAGMKPLSDPEAQELAKEVAEKGYLVYTLKYPDGTVITVVSKSEEEVEALLEKSPYPIKEIVIIPPEKPSAG [r5_481_JUSTAS] | 1.16 ± 0.082 | 1.74 ± 0.098 | 1.48 ± 0.12
SAGMKSLTITETVTDPNSDNPITIITDPVTGKVIKLYPDGTATVYDPNNPNKSTTYKMSPEEVIEKMSSSAG [r5_491_JUSTAS] | 0.0921 ± 0.053 | 0.967 ± 0.088 | 0.673 ± 0.061
SAGMKTYTITVPASEAEEAAEKAAEEIKKELGLPDSDTVEVTVTSYDPKTGTVTITITVTRPLPGGLSLSAG [r5_537_JUSTAS] | 2.74 ± 0.13 | 1.76 ± 0.084 | 2.19 ± 0.2
SAGMKVPVTVKMKAEKEEELEKVIKEIKEETGFEFEVEKNPETKEYTVKVYATPEVVEILKKKGFDVESAGG [r19_306_TrMRF] | 1.9 ± 0.14 | 3.2 ± 0.081 | 2.77 ± 0.24
SAGMKYTAEVKVKEKDKEIDVTVSDDATFTDPEGKETTFKIGSEEELKKALEEIFPEKYPYEILSVKVLSAG [r14_41_JUSTAS] | -0.65 ± 0.47 | 0.156 ± 0.18 | -0.0975 ± 0.2
SAGMLEISSDVLKALGIPVGATAEEVKERIQRRLEELGFEVEIPSVVIEELDPETGRVGVRIDLDLRPPSAG [r5_23_TrMRF] | 3.05 ± 0.18 | 2.23 ± 0.35 | 2.5 ± 0.23
SAGMLKVKIKIEIEKDGKKIELEKEIEAESEEELLKAAEELAKELEKKGIKIKKIEVEVEKIPEPEEEESAG [r5_660_TrROS_Hall] | 2.04 ± 0.12 | 2.77 ± 0.055 | 2.5 ± 0.12
SAGMLSSETVPFPDSEITIEYDPETGTVKITTTTTTSSPSLDYRTGKPGSVSSSTTTSFEVEAEPGAELSAG [r5_195_JUSTAS] | 0.0129 ± 0.076 | 0.323 ± 0.17 | 0.254 ± 0.18
SAGMLTYRFTVPAEEAEEAAEELAETLRRELGLPEEVKVEVKVVEYDPETGLVTVEAVVYRPLPEGVEPSAG [r5_537_TrMRF] | 4.21 ± 0.16 | 4.44 ± 0.11 | 4.5 ± 0.14
SAGMMKFPPGAKIKIVNKETGEEKEITLPEGAEVEFDEETGEVHIRVKVDGKEYRFTFKNGEIVEVEEVSAG [r5_22_TrROS_Hall] | 3.23 ± 0.26 | 4.3 ± 0.066 | 3.73 ± 0.3

Sequence | folding stability dG unfold [1] [kcal/mol] | folding stability dG unfold [2] [kcal/mol] | folding stability dG unfold [3] [kcal/mol]
SAGMMLIEVEKNGEPVEVAEVKDDEITITLPKEKVRIRIVNADTGEEVEAEATVEDGTITIKLPPGVKLSAG [r5_469_TrROS_Hall] | 0.669 ± 0.077 | -0.794 ± 0.45 | 0.232 ± 0.19
SAGMMTIEIELKNGKKIKIEVEKKNGKYIIKITVYDKNGKKVKEVKIEVPKKNMSLEEIIKEALKKLLKSAG [r5_630_TrROS_Hall] | 2.83 ± 0.2 | 3.71 ± 0.28 | 3.73 ± 0.47
SAGMMTVEELKEKLKEAAEKAGVKVKEIKITGPDGKEITVEVDLSEEQLKKLAEELGLEIDEVEVREPSAGG [r19_50_TrROS_Hall] | 1.3 ± 0.099 | 1.75 ± 0.092 | 1.67 ± 0.2
SAGMMVKVEIEFPLTLTTTEKVGTGPNGIPVFETREEIVVITFRATVPENPEEVAAAKEEAKAVAEALSSAG [r14_223_JUSTAS] | 1.8 ± 0.042 | 2.08 ± 0.11 | 1.89 ± 0.2
SAGMMYKITIKTKNGEKIEIEIPAEELENLTEEQLKELAKELAKKLEEEGIEVEKVEVKIEPVKPEELSAGG [r19_334_TrROS_Hall] | 3.3 ± 0.23 | 2.93 ± 0.058 | 3.04 ± 0.13
SAGMNLSPEEIAERIREEAKKKYPNSEVEVRIVSQPPTTIVLEVKITIYFPEEGGSIIEEPRVITIDRLSAG [r14_187_JUSTAS] | 2.05 ± 0.076 | 2.17 ± 0.13 | 2.15 ± 0.13
SAGMPAGDFEPVKVEYTIKIPILNEGGGAAAPMPIKVKVEVYRMPNGNLFIKFEIEIPGGNKIEFWFPISAG [r5_580_TrROS] | 2.67 ± 0.28 | 4.32 ± 0.13 | 3.99 ± 0.26
SAGMPETITIKIRNPETGKLYEIEIEKVDGEVKVTIRDVETGKERREITMTPEEVRELLKELGFEVEEVSAG [r5_291_TrROS_Hall] | 1.42 ± 0.049 | 3.1 ± 0.056 | 2.63 ± 0.059
SAGMPGKIRVEVEAEISEDNVIKLKIKIYGPDGELIDEIEAEIYLPVPPLSPSEGGGLIEAGNPELAEGSAG [r5_944_TrMRF] | 2.54 ± 0.2 | 3.38 ± 0.092 | 3.13 ± 0.13
SAGMPLRTVKVLVTINDKTEEKTLSEEELKALIESGELELLGKEPEENIVYVYKKVPPPVGSKTKKSLLSAG [r5_868_JUSTAS] | 0.71 ± 0.29 | 1.94 ± 0.17 | 1.64 ± 0.27
SAGMPPPEEVFVVKVRFDGKELTLVVRVPPGMSAEEVAKKLAEELRKKFGPDIEVEVRRVSREELLEALSAG [r5_583_TrROS_Hall] | 3.66 ± 0.13 | 2.95 ± 0.12 | 3.23 ± 0.18
SAGMPSFTTTSAPTEQLPELLAELATRPPNVSYTFPLPDPSRSLSLSVSADRITLTDPATGTTTTLPASAGG [r19_154_JUSTAS] | -0.653 ± 0.17 | -1.12 ± 0.51 | -0.779 ± 0.2
SAGMPVTVTSTSDPENGSTTVPRTHPTGPVVTVTITKLPPGELRVTVDAGTTVTLYTLPPDALTTFTTPSAG [r5_14_JUSTAS] | 0.51 ± 0.16 | 0.13 ± 0.18 | 0.339 ± 0.11
SAGMSADIPVDPVTGTLTITVTDAFNPDKSTTTTVPLSELEAELGRPLTLEEVAARVEAAGVATVTVGPSAG [r14_809_JUSTAS] | 1.46 ± 0.051 | -0.0285 ± 0.085 | 0.82 ± 0.056
SAGMSEEERKAAEEASKPPVKVETLTVTVLVEVDGKLYLVRATITRVVLPDGSIVTELKIEIIPLEDLSAGG [r19_11_TrROS_Hall] | 3.05 ± 0.21 | 4.26 ± 0.33 | 3.88 ± 0.3
SAGMSLVPLEELARAWAEERGLPVLDVEVPESRSPATRHVTITLTLRDPATGALTTETRELVIPEEELGSAG [r5_421_JUSTAS] | 0.585 ± 0.077 | 0.583 ± 0.096 | 0.621 ± 0.1
SAGMTAEELAEELAKELEVEVTLENGEKRRVRVEVKVERLPDGTLLLTAKVENEETGETFEIKIEIKLESAG [r5_397_TrROS_Hall] | 2.9 ± 0.13 | 4.3 ± 0.37 | 3.67 ± 0.33
SAGMTALFTDSSGKEVTFSHPNLELTVDPETGVVSAYEPESNLKVEVKVAPDKVTVTVYSGSSSKEIPLSAG [r5_786_JUSTAS] | -0.226 ± 0.064 | 0.956 ± 0.16 | 0.574 ± 0.11
SAGMTFKNPGSDKTLTYEPETGAITLHNGDSVSTLPLPPGTSFTVTVDPEKGVVTITVPETGATITLPLSAG [r5_858_JUSTAS] | 1.07 ± 0.028 | 0.248 ± 0.22 | 0.803 ± 0.11
SAGMTIEELRSLPPGARVTSVEYDEETEEVTVTVERTREDGKTETLTLTFRSREELEAALKAGADRIVFSAG [r5_905_TrROS_Hall] | 1.731 ± 0.017 | 1.16 ± 0.059 | 1.54 ± 0.052
SAGMTIELPNATVTLERVPVPATGESAWVVTVTARHPDGSTPTVVAVFPEDTPPEDVLAAALALAEELESAG [r5_704_TrMRF] | 4.75 ± 0.44 | 4.62 ± 0.075 | 4.78 ± 0.16
